What follows are binders tested against T1, PUF4 RNA-binding domain (Saccharomyces cerevisiae, UniProt P25339 537-888) (assay: Mg; RNA-MaP; 20 mM Na-HEPES pH 7.4, 30 mM KOAc, 0.75 mM MgCl2, 0.1% Tween-20, 5% glycerol, 0.1 mg/mL BSA, 2 mM DTT; 25 C; 0.0125-409.6 nM protein). Settings: tags: N-His6-TEV cleaved; C-SNAP kept, Cy3B-labelled; label: tethered on chip by stalled RNA polymerase.
T1 sequence: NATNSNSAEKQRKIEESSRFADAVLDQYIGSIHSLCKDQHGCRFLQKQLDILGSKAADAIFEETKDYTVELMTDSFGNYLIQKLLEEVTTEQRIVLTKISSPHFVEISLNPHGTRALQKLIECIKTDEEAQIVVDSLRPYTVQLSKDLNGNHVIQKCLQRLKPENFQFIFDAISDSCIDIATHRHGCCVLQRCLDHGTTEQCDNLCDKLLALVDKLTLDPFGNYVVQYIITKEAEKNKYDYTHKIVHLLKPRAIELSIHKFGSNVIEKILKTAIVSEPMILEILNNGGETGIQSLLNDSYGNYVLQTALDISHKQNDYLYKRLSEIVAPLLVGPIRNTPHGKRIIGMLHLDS

Binder	Kd
Ic_S4_P5E.1_K5.1_C5.1_H5.1_A5.1_F5.1_[T9A]_[A10C]_T5.1 (ssRNA) RNA: UUUGACAACUGAUCGUUCUUUCUUGUAUUAUACUUCUUUCUCGAUCAGUUGUCUUU	7.38 nM
Ic_S4_P5E.1_K5.1_C5.1_H5.1_A5.1_[T6C]_F5.1_[T9A]_T5.1 (ssRNA) RNA: UUUGACAACUGAUCGUUCUUUCUUGUAUCAUAAUUCUUUCUCGAUCAGUUGUCUUU	1.47 nM
Ib_S4_P5E.1_K5.1_C5.1_H5.1_[A4C]_A5.1_F5.1_[T8C]_T5.1 (ssRNA) RNA: UUUGACAACUGAUCGUUCUUUCUUGUCUUACUAUUCUUUCUCGAUCAGUUGUCUUU	35.7 nM
Ib_S4_P5E.1_K5.1_C5.1_H5.1_A5.1_[A7T]_F5.1_[T9C]_T5.1 (ssRNA) RNA: UUUGACAACUGAUCGUUCUUUCUUGUAUUUUCAUUCUUUCUCGAUCAGUUGUCUUU	69.4 nM
Ib_S4_P5E.1_K5.1_C5.1_H5.1_[A4T]_A5.1_F5.1_[A10T]_T5.1 (ssRNA) RNA: UUUGACAACUGAUCGUUCUUUCUUGUUUUAUUUUUCUUUCUCGAUCAGUUGUCUUU	119 nM
Ib_S4_P5E.1_K5.1_C5.1_H5.1_A5.1_[T5A]_F5.1_[A10C]_T5.1 (ssRNA) RNA: UUUGACAACUGAUCGUUCUUUCUUGUAAUAUUCUUCUUUCUCGAUCAGUUGUCUUU	29.4 nM
Ib_S4_P5E.1_K5.1_C5.1_H5.1_A5.1_[T5A]_F5.1_[T8A]_T5.1 (ssRNA) RNA: UUUGACAACUGAUCGUUCUUUCUUGUAAUAAUAUUCUUUCUCGAUCAGUUGUCUUU	13.8 nM
Ib_S4_P5E.1_K5.1_C5.1_H5.1_[G2A]_A5.1_F5.1_[T8G]_T5.1 (ssRNA) RNA: UUUGACAACUGAUCGUUCUUUCUUAUAUUAGUAUUCUUUCUCGAUCAGUUGUCUUU	628 nM
Ib_S4_P5E.1_K5.1_C5.1_H5.1_[A4C]_A5.1_F5.1_[A10T]_T5.1 (ssRNA) RNA: UUUGACAACUGAUCGUUCUUUCUUGUCUUAUUUUUCUUUCUCGAUCAGUUGUCUUU	201 nM
Ib_S4_P5E.1_K5.1_C5.1_H5.1_[A4C]_A5.1_F5.1_[A10C]_T5.1 (ssRNA) RNA: UUUGACAACUGAUCGUUCUUUCUUGUCUUAUUCUUCUUUCUCGAUCAGUUGUCUUU	493 nM
Ib_S4_P5E.1_K5.1_C5.1_H5.1_A5.1_[T5G]_F5.1_[T8C]_T5.1 (ssRNA) RNA: UUUGACAACUGAUCGUUCUUUCUUGUAGUACUAUUCUUUCUCGAUCAGUUGUCUUU	13.1 nM
Ib_S4_P5E.1_K5.1_C5.1_H5.1_A5.1_[T5C]_F5.1_[A10T]_T5.1 (ssRNA) RNA: UUUGACAACUGAUCGUUCUUUCUUGUACUAUUUUUCUUUCUCGAUCAGUUGUCUUU	4.98 nM
Ib_S4_P5E.1_K5.1_C5.1_H5.1_A5.1_[A7T]_F5.1_[A10G]_T5.1 (ssRNA) RNA: UUUGACAACUGAUCGUUCUUUCUUGUAUUUUUGUUCUUUCUCGAUCAGUUGUCUUU	9.13 nM
Ib_S4_P5E.1_K5.1_C5.1_H5.1_[T3C]_A5.1_F5.1_[T8A]_T5.1 (ssRNA) RNA: UUUGACAACUGAUCGUUCUUUCUUGCAUUAAUAUUCUUUCUCGAUCAGUUGUCUUU	1010 nM
Ib_S4_P5E.1_K5.1_C5.1_H5.1_[A4T]_A5.1_F5.1_[T9A]_T5.1 (ssRNA) RNA: UUUGACAACUGAUCGUUCUUUCUUGUUUUAUAAUUCUUUCUCGAUCAGUUGUCUUU	33.2 nM
Ib_S4_P5E.1_K5.1_C5.1_H5.1_[A4G]_A5.1_F5.1_[A10C]_T5.1 (ssRNA) RNA: UUUGACAACUGAUCGUUCUUUCUUGUGUUAUUCUUCUUUCUCGAUCAGUUGUCUUU	105 nM
Ib_S4_P5E.1_K5.1_C5.1_H5.1_A5.1_[A7G]_F5.1_[T9C]_T5.1 (ssRNA) RNA: UUUGACAACUGAUCGUUCUUUCUUGUAUUGUCAUUCUUUCUCGAUCAGUUGUCUUU	393 nM
Ib_S4_P5E.1_K5.1_C5.1_H5.1_[A4C]_A5.1_F5.1_[T8A]_T5.1 (ssRNA) RNA: UUUGACAACUGAUCGUUCUUUCUUGUCUUAAUAUUCUUUCUCGAUCAGUUGUCUUU	26.8 nM
Ib_S4_P5E.1_K5.1_C5.1_H5.1_[G2C]_A5.1_F5.1_[T8C]_T5.1 (ssRNA) RNA: UUUGACAACUGAUCGUUCUUUCUUCUAUUACUAUUCUUUCUCGAUCAGUUGUCUUU	> 2300 nM
Ib_S4_P5E.1_K5.1_C5.1_H5.1_[T3C]_A5.1_F5.1_[T8C]_T5.1 (ssRNA) RNA: UUUGACAACUGAUCGUUCUUUCUUGCAUUACUAUUCUUUCUCGAUCAGUUGUCUUU	478 nM
Ib_S4_P5E.1_K5.1_C5.1_H5.1_A5.1_[A7G]_F5.1_[T8C]_T5.1 (ssRNA) RNA: UUUGACAACUGAUCGUUCUUUCUUGUAUUGCUAUUCUUUCUCGAUCAGUUGUCUUU	14.9 nM
Ib_S4_P5E.1_K5.1_C5.1_H5.1_A5.1_[T5C]_F5.1_[T9C]_T5.1 (ssRNA) RNA: UUUGACAACUGAUCGUUCUUUCUUGUACUAUCAUUCUUUCUCGAUCAGUUGUCUUU	27.6 nM
Ib_S4_P5E.1_K5.1_C5.1_H5.1_A5.1_[A7G]_F5.1_[A10G]_T5.1 (ssRNA) RNA: UUUGACAACUGAUCGUUCUUUCUUGUAUUGUUGUUCUUUCUCGAUCAGUUGUCUUU	52.3 nM
Ib_S4_P5E.1_K5.1_C5.1_H5.1_A5.1_F5.1_[T9A]_[A10T]_T5.1 (ssRNA) RNA: UUUGACAACUGAUCGUUCUUUCUUGUAUUAUAUUUCUUUCUCGAUCAGUUGUCUUU	1.18 nM

Binder	Kd
Ic_S4_P5E.1_K5.1_C5.1_H5.1_A5.1_[T5C]_F5.1_[T8C]_T5.1 (ssRNA) RNA: UUUGACAACUGAUCGUUCUUUCUUGUACUACUAUUCUUUCUCGAUCAGUUGUCUUU	3.13 nM
Ib_S4_P5E.1_K5.1_C5.1_H5.1_[G2A]_A5.1_F5.1_[T8A]_T5.1 (ssRNA) RNA: UUUGACAACUGAUCGUUCUUUCUUAUAUUAAUAUUCUUUCUCGAUCAGUUGUCUUU	598 nM
Ib_S4_P5E.1_K5.1_C5.1_H5.1_[G2A]_A5.1_F5.1_[A10T]_T5.1 (ssRNA) RNA: UUUGACAACUGAUCGUUCUUUCUUAUAUUAUUUUUCUUUCUCGAUCAGUUGUCUUU	259 nM
Ib_S4_P5E.1_K5.1_C5.1_H5.1_A5.1_[A7C]_F5.1_[T8G]_T5.1 (ssRNA) RNA: UUUGACAACUGAUCGUUCUUUCUUGUAUUCGUAUUCUUUCUCGAUCAGUUGUCUUU	10.4 nM
Ib_S4_P5E.1_K5.1_C5.1_H5.1_[T1C]_A5.1_F5.1_[T8A]_T5.1 (ssRNA) RNA: UUUGACAACUGAUCGUUCUUUCUCGUAUUAAUAUUCUUUCUCGAUCAGUUGUCUUU	964 nM
Ib_S4_P5E.1_K5.1_C5.1_H5.1_A5.1_[T6A]_F5.1_[T8C]_T5.1 (ssRNA) RNA: UUUGACAACUGAUCGUUCUUUCUUGUAUAACUAUUCUUUCUCGAUCAGUUGUCUUU	5.07 nM
Ib_S4_P5E.1_K5.1_C5.1_H5.1_A5.1_[T6C]_F5.1_[A10T]_T5.1 (ssRNA) RNA: UUUGACAACUGAUCGUUCUUUCUUGUAUCAUUUUUCUUUCUCGAUCAGUUGUCUUU	7.7 nM
Ib_S4_P5E.1_K5.1_C5.1_H5.1_A5.1_[T6A]_F5.1_[T8A]_T5.1 (ssRNA) RNA: UUUGACAACUGAUCGUUCUUUCUUGUAUAAAUAUUCUUUCUCGAUCAGUUGUCUUU	9.5 nM
Ib_S4_P5E.1_K5.1_C5.1_H5.1_A5.1_[A7C]_F5.1_[T9C]_T5.1 (ssRNA) RNA: UUUGACAACUGAUCGUUCUUUCUUGUAUUCUCAUUCUUUCUCGAUCAGUUGUCUUU	56 nM
Ib_S4_P5E.1_K5.1_C5.1_H5.1_[T1G]_A5.1_F5.1_[T9A]_T5.1 (ssRNA) RNA: UUUGACAACUGAUCGUUCUUUCUGGUAUUAUAAUUCUUUCUCGAUCAGUUGUCUUU	1300 nM
Ib_S4_P5E.1_K5.1_C5.1_H5.1_A5.1_[A7T]_F5.1_[T8C]_T5.1 (ssRNA) RNA: UUUGACAACUGAUCGUUCUUUCUUGUAUUUCUAUUCUUUCUCGAUCAGUUGUCUUU	3.12 nM
Ib_S4_P5E.1_K5.1_C5.1_H5.1_[A4T]_A5.1_F5.1_[T8G]_T5.1 (ssRNA) RNA: UUUGACAACUGAUCGUUCUUUCUUGUUUUAGUAUUCUUUCUCGAUCAGUUGUCUUU	107 nM
Ib_S4_P5E.1_K5.1_C5.1_H5.1_A5.1_[A7T]_F5.1_[T8G]_T5.1 (ssRNA) RNA: UUUGACAACUGAUCGUUCUUUCUUGUAUUUGUAUUCUUUCUCGAUCAGUUGUCUUU	3.74 nM
Ib_S4_P5E.1_K5.1_C5.1_H5.1_[A4G]_A5.1_F5.1_[T8C]_T5.1 (ssRNA) RNA: UUUGACAACUGAUCGUUCUUUCUUGUGUUACUAUUCUUUCUCGAUCAGUUGUCUUU	28.4 nM
Ib_S4_P5E.1_K5.1_C5.1_H5.1_A5.1_[T5G]_F5.1_[A10G]_T5.1 (ssRNA) RNA: UUUGACAACUGAUCGUUCUUUCUUGUAGUAUUGUUCUUUCUCGAUCAGUUGUCUUU	109 nM
Ib_S4_P5E.1_K5.1_C5.1_H5.1_A5.1_[T5G]_F5.1_[T9A]_T5.1 (ssRNA) RNA: UUUGACAACUGAUCGUUCUUUCUUGUAGUAUAAUUCUUUCUCGAUCAGUUGUCUUU	7.64 nM
Ib_S4_P5E.1_K5.1_C5.1_H5.1_[T3C]_A5.1_F5.1_[A10C]_T5.1 (ssRNA) RNA: UUUGACAACUGAUCGUUCUUUCUUGCAUUAUUCUUCUUUCUCGAUCAGUUGUCUUU	1790 nM
Ib_S4_P5E.1_K5.1_C5.1_H5.1_[T1C]_A5.1_F5.1_[A10C]_T5.1 (ssRNA) RNA: UUUGACAACUGAUCGUUCUUUCUCGUAUUAUUCUUCUUUCUCGAUCAGUUGUCUUU	> 2300 nM
Ib_S4_P5E.1_K5.1_C5.1_H5.1_[A4C]_A5.1_F5.1_[T9A]_T5.1 (ssRNA) RNA: UUUGACAACUGAUCGUUCUUUCUUGUCUUAUAAUUCUUUCUCGAUCAGUUGUCUUU	57.1 nM
Ib_S4_P5E.1_K5.1_C5.1_H5.1_[T1C]_A5.1_F5.1_[T8C]_T5.1 (ssRNA) RNA: UUUGACAACUGAUCGUUCUUUCUCGUAUUACUAUUCUUUCUCGAUCAGUUGUCUUU	688 nM
Ia_S4_P4E.1_K4.1_C4.1_H4.1_[G2A]_A4.1_F4.1_T4.1 (ssRNA) RNA: UUUGACAACUGAUCGUUCUUUCUUAUAUAUUAUUCUUUCUCGAUCAGUUGUCUUU	10.3 nM
Ia_S4_P4E.1_K4.1_C4.1_H4.1_A4.1_[T5C]_F4.1_T4.1 (ssRNA) RNA: UUUGACAACUGAUCGUUCUUUCUUGUACAUUAUUCUUUCUCGAUCAGUUGUCUUU	0.303 nM
Ia_S4_P4E.1_K4.1_C4.1_H4.1_[A4G]_A4.1_F4.1_T4.1 (ssRNA) RNA: UUUGACAACUGAUCGUUCUUUCUUGUGUAUUAUUCUUUCUCGAUCAGUUGUCUUU	1.25 nM
Ia_S4_P4E.1_K4.1_C4.1_H4.1_[T3C]_A4.1_F4.1_T4.1 (ssRNA) RNA: UUUGACAACUGAUCGUUCUUUCUUGCAUAUUAUUCUUUCUCGAUCAGUUGUCUUU	21 nM

From paper PMC9352680, “A comprehensive thermodynamic model for RNA binding by the Saccharomyces cerevisiae Pumilio protein PUF4”
